Test results taken from US20200255511A1 (TILLOTTS PHARMA, published 2020).
Substitutions are numbered along the chain they refer to. Names may count otherwise. Values belong to the binder of their own block, whether it stands above or below them.

Key:
CD16a (V) [1] = target: T1, CD16a (V) (UniProt P08637 17-208); test: SPR (Biacore), His-tagged FcγR captured on anti-His chip, antibody as analyte, 25 °C
T1 construct: Captured by its His-tag
Procedure: (§1) Affinity to FcγRs was measured by Biacore. A CM5 chip was prepared using standard amine immobilisation Biacore procedures. Upon insertion of a CM5 chip the system was primed and then normalised with BIA-normalizing solution (Biacore Preventative Maintenance Kit 2). The chip was added to the system with PBS-T running buffer; prior to immobilisation the chip surface was primed with three injections of 50 mM NaOH. FcγRs were immobilised on the chip surface using a His-tag capture system. The anti-His tag chip was prepared according to the Biacore kit instructions, with ˜12000 RU's of the antibody deposited on all 4 flow cells. To remove non-covalently bound material from all the chip flow cells, three 30 second 10 mM glycine pH 1.5 washes were performed. The Fcγ receptors were diluted in PBS-T to a range of 0.5-2 μg/mL, with 2.5-5.0 μL injected onto the chip generating capture levels between 60 and 200 RU's. Antibodies were diluted into PBS-T prior to analysis. Single cycle kinetics were used to estimate the steady state affinity. For each single cycle analysis cycle a titration of 5 antibody concentrations were injected over the FcγR ligand and then the dissociation of the complex was measured. The surface was regenerated using the recommended solution, 10 mM glycine pH 1.5 for the anti-His capture surface. A double referencing method was employed in which data from the ligand bound capture surface (fc 2 and 4) were subtracted from the references surfaces where no ligand was captured (fc 1 and 3 respectively). Blank injections of buffer were run for every antibody titration cycle and then subtracted from analyte injection cycles, to correct for small changes in the ligand capture surface. All analysis was performed at 25° C. and the sample rack was incubated at 10° C. during experimental runs. Each experiment was run at least three times.
(§2) The mean and standard deviation affinity calculated from two or more independent experiments is shown.

human TNFα [2] = target: T2, human TNFα (human, UniProt P01375 77-233); test: SPR (Biacore), antibody captured on Protein A, TNFα as analyte, single cycle kinetics, 25 °C
T2 construct: also called recombinant TNFα
T2 sequence (P01375 77-233 limits assumed): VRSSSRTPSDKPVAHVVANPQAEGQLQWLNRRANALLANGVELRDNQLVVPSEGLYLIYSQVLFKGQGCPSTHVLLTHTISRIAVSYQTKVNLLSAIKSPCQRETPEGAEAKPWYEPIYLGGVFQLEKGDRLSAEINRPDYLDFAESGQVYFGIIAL
Procedure: Affinity to TNFα was measured by Biacore. A CM5 chip was prepared using standard amine immobilisation Biacore procedures. Upon insertion of a CM5 chip the system was primed and then normalised with BIA-normalising solution (Biacore Preventative Maintenance Kit 2). The chip was added to the system with PBS-T running buffer; prior to immobilisation the chip surface was primed with three injections of 50 mM NaOH. Protein A was immobilised on the chip surface. For this, the protein was diluted to 5 μg/mL into 10 mM acetate buffer at pH 4.5 and injected so to generate a bound response of ˜1000 RU's in all 4 flow cells. To remove non-covalently bound material from all the chip flow cells, three 15 second 50 mM NaOH washes were performed. On the Protein A chip, antibody was captured in flow cells 2 and 4, with flow cells 1 and 3 used for reference subtraction. The trial antibodies were diluted in PBS-T to 10 nM and 2.5-7.5 uL injected to obtain 120 RU of captured antibody. The analyte TNFα was prepared at 500 μg/mL in water as directed by the supplier and further diluted into the running buffer Phosphate Buffered Saline Tween-20 (PBS-T). Single cycle kinetics was used to estimate the steady state affinity. For each single cycle analysis cycle a titration of 5 analyte concentrations were injected over the ligand and then the dissociation of the complex was measured. The surface was regenerated using glycine pH 1.7. A double referencing method was employed in which data from the ligand bound capture surface (fc 2 and 4) were subtracted from the references surfaces where no ligand was captured (fc 1 and 3 respectively). Blank injections of buffer were run every 3-4 cycles and then subtracted from analyte injection cycles, to correct for small changes in the ligand capture surface. Repeat injections of analyte at the start and end of each analytical run were used to check for sample degradation, or changes in the instrument performance. All analysis was performed at 25° C. and the sample rack was incubated at 10° C. during experimental runs. Each experiment was run at least three times. A 1-to-1 binding model was used to fit the resulting kinetic data.

[3] = target: T3, monomeric His-tagged human FcRn (human, UniProt P55899 24-297; P61769 21-119, limits assumed); test: SPR (Biacore 3000) at pH 6.0, antibody amine-coupled, monomeric His-tagged hFcRn as analyte, 25 °C; pH 6.0
T3 construct: also called hFcRn
Procedure: (§3) SPR was performed using a Biacore 3000 instrument with CM5 sensor chips coupled with anti-TNFα IgG1 antibodies (˜500 resonance units (RU)) using amine-coupling chemistry as described by the manufacturer. The coupling was performed by injecting 2.0 ug/mL of each protein in 10 mM sodium acetate, pH 4.5, using the amine-coupling kit (GE Healthcare). […] All SPR experiments were conducted at 25° C. with a flow rate of 40 ul/min. Binding data were zero-adjusted, and reference cell value subtracted. The Langmuir 1:1 ligand binding model provided by the BIAevaluation software (version 4.1) was used to determine the binding kinetics.

CD32b = target: T4, CD32b (UniProt P31994 43-217); test: SPR (Biacore), His-tagged FcγR captured on anti-His chip, antibody as analyte, 25 °C
T4 construct: Captured by its His-tag
T4 sequence (looked up): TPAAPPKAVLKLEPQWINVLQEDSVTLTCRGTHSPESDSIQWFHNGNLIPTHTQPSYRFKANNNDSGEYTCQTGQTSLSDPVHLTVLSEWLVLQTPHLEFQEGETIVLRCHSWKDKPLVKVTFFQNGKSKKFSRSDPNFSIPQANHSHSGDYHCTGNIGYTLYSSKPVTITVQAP
Procedure: as §1

CD32a (H) = target: T5, CD32a (H) (UniProt P12318 36-218); test: as above
T5 construct: Captured by its His-tag
T5 sequence (looked up): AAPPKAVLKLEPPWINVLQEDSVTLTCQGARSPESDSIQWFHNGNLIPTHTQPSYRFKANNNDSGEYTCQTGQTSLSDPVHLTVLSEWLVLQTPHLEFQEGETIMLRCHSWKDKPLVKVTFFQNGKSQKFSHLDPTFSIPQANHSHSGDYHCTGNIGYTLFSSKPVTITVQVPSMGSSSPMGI
Procedure: as §1

CD64 = target: T6, CD64 (UniProt P12314 16-288, limits assumed); test: as above
T6 construct: Captured on the chip by its His-tag; also called Fcγ receptor CD64
T6 sequence (P12314 16-288 limits assumed): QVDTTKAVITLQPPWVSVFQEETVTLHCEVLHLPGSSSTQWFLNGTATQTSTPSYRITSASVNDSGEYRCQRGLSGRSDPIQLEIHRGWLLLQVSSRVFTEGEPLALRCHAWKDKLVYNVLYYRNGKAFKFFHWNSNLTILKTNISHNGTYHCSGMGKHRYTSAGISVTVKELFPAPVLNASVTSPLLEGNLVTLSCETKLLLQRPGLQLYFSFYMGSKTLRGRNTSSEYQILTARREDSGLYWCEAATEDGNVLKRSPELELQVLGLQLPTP
Procedure: as §1

CD16b (NA2) = target: T7, CD16b (NA2) (UniProt O75015 17-200, limits assumed); test: as above
T7 construct: Captured by its His-tag
T7 sequence (O75015 17-200 N65S limits assumed): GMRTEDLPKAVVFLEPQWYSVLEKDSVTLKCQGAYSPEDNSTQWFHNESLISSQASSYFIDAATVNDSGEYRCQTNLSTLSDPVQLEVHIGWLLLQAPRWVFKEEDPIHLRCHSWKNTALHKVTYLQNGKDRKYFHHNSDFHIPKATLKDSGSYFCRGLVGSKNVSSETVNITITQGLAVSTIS
Procedure: as §1, §2

CD16a (F) = target: T8, CD16a (F) (UniProt P08637 17-208); test: as above
T8 construct: Captured by its His-tag
T8 sequence (P08637 17-208 limits assumed): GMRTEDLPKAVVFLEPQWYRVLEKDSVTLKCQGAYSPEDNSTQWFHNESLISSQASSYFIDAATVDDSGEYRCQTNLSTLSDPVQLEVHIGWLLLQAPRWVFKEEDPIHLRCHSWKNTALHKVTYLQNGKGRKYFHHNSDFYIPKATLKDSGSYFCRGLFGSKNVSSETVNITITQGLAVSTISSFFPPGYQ
Procedure: as §1, §2

human C1q = human C1q (human, UniProt P02745 23-245; P02746 28-253; P02747 29-245); test: ELISA: antibody titrated onto plate-coated human TNFα (1 µg/mL), then human C1q (0.5 µg/mL), detected with rabbit anti-human C1q and HRP anti-rabbit IgG, absorbance 620 nm
Chain of human C1q (P02745 23-245 limits assumed, chain 1 of 3): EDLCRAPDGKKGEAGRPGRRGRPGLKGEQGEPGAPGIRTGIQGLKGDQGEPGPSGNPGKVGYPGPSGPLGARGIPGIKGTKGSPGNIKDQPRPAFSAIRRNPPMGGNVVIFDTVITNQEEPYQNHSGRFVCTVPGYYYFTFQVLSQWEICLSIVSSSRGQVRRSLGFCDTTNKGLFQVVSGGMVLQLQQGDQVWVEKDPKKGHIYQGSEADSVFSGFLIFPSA
Chain of human C1q (P02746 28-253 limits assumed, chain 2 of 3): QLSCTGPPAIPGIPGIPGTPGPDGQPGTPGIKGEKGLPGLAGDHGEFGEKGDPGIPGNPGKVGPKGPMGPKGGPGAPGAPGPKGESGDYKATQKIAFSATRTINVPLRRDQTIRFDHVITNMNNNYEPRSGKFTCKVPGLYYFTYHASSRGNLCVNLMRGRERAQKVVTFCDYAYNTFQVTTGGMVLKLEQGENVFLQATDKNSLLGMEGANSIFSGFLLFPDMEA
Chain of human C1q (P02747 29-245 limits assumed, chain 3 of 3): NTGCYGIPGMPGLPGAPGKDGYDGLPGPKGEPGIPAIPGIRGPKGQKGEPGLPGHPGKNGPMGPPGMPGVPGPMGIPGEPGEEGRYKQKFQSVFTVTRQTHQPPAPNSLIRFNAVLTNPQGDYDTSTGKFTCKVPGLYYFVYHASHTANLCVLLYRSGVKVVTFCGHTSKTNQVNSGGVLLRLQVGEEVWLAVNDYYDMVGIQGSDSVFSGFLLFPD
Procedure: ELISA was performed using 96-well MaxiSorp plates where the wells were coated with human TNFα diluted to 1 μg/mL in PBS. After incubation O/N at 4° C., the plates were blocked with PBS containing 4% skimmed milk for 1 h and washed four times with PBS containing 0.05% Tween-20 (PBS-T). Then, titrated amounts of the anti-TNFα IgG antibodies were diluted in PBS-T, added and incubated for 1h at RT. After washing using PBS-T, human C1q (0.5 μg/mL) was diluted in 0.1 M Veronal buffer (0.25 mM CaCl₂ and 0.8 mM MgCl₂ pH 7.2), added to the wells and incubated for 1 h. Subsequently, the wells were washed as above before rabbit anti-human C1q diluted 1:5000 in PBS-T was added to the wells and incubated for 1 h. After washing, an HRP-conjugated anti-rabbit IgG from donkey diluted 1:5000 in PBS-T was added. Subsequently, the wells were washed and 100 μL 3,3′,5,5′-Tetramethylbenzidine substrate was added to each well. The absorbance was measured at 620 nm using a Sunrise spectrophotometer.
The anti-TNFα antibody variants were captured on human TNFα before human C1q was added.

CD32a (R) = target: T9, CD32a (R) (UniProt P12318 36-218); test: SPR (Biacore), His-tagged FcγR captured on anti-His chip, antibody as analyte, 25 °C
T9 construct: Captured by its His-tag
T9 sequence (looked up): T5 sequence (looked up) with H132R
Procedure: as §1

[4] = target: T3, monomeric His-tagged human FcRn; test: SPR at pH 6.0, KD against that of Ab-wt; pH 6.0; fold change from Ab-wt
Procedure: as §3

[5] = target: T3, monomeric His-tagged human FcRn; test: SPR at pH 6.0, KD against that of IFX; pH 6.0; fold change from IFX
Procedure: as §3

human TNFα [6] = target: T2, human TNFα; test: cell-based or functional assay
CD16a (V) [7] = target: T1, CD16a (V); test: SPR (Biacore), His-tagged FcγR captured; the sentence names no reference (Ab-wt by Table 5)
Procedure: Affinity to FcγRs was measured by Biacore. A CM5 chip was prepared using standard amine immobilisation Biacore procedures. Upon insertion of a CM5 chip the system was primed and then normalised with BIA-normalizing solution (Biacore Preventative Maintenance Kit 2). The chip was added to the system with PBS-T running buffer; prior to immobilisation the chip surface was primed with three injections of 50 mM NaOH. FcγRs were immobilised on the chip surface using a His-tag capture system. The anti-His tag chip was prepared according to the Biacore kit instructions, with ˜12000 RU's of the antibody deposited on all 4 flow cells. To remove non-covalently bound material from all the chip flow cells, three 30 second 10 mM glycine pH 1.5 washes were performed. The Fcγ receptors were diluted in PBS-T to a range of 0.5-2 μg/mL, with 2.5-5.0 μL injected onto the chip generating capture levels between 60 and 200 RU's. Antibodies were diluted into PBS-T prior to analysis. Single cycle kinetics were used to estimate the steady state affinity. For each single cycle analysis cycle a titration of 5 antibody concentrations were injected over the FcγR ligand and then the dissociation of the complex was measured. The surface was regenerated using the recommended solution, 10 mM glycine pH 1.5 for the anti-His capture surface. […]

T1 sequence (P08637 17-208 F176V limits assumed): as the sequence (P08637 17-208 limits assumed) above, with F160V counted along it

Kd (CD16a (V) [1]): 184 nM
Kd (human TNFα [2]): 0.00413 nM
koff (human TNFα [2]): 3.45e-05 s⁻¹
kon (human TNFα [2]): 8.37e+06 M⁻¹ s⁻¹
Kd [3]: 1000 nM
Kd (CD32b): 3140 nM
Kd (CD32a (H)): 670 nM
Kd (CD64): 2.92 nM
B1: Ab-wt (antibody, human IgG1, kappa)
heavy: not shown
light: DIQMTQSPSSLSASVGDRVTIKCQASQSIFSGLAWYQQKPGKAPKLLIYGASKLASGVPSRFSGSGSGTEFTLTISGLQPADFATYYCQSYYYSSSSSDGSYAFGGGTKLTVLGRTVAAPSVFIFPPSDEQLKSGTASVVCLLNNFYPREAKVQWKVDNALQSGNSQESVTEQDSKDSTYSLSSTLTLSKADYEKHKVYACEVTHQGLSSPVTKSFNRGEC
notes: Human IgG1 anti-TNFα antibody with wild-type Fc; also called parent antibody; wild-type antibody

Kd (CD16a (V) [1]): 707 nM
Kd (CD16b (NA2)): 2240 nM
Kd (CD16a (F)): 1760 nM
Kd (human TNFα [2]): 0.00247 nM
koff (human TNFα [2]): 2.06e-05 s⁻¹
kon (human TNFα [2]): 8.54e+06 M⁻¹ s⁻¹
Kd [3]: 119 nM
EC50 (read off the curve) (human C1q): ~0.6 µg/mL
Kd (CD32b): 2170 nM
Kd (CD32a (H)): 1410 nM
Kd (CD64): 3.59 nM
Kd (CD32a (R)): 2050 nM
Fold change from wt [4]: 8.4 fold
Fold change from IFX [5]: 3.6 fold
IC50 (read off the curve) (human TNFα [6]): ~0.008 µg/mL
B2: Ab-AA (antibody, human IgG1, kappa)
heavy: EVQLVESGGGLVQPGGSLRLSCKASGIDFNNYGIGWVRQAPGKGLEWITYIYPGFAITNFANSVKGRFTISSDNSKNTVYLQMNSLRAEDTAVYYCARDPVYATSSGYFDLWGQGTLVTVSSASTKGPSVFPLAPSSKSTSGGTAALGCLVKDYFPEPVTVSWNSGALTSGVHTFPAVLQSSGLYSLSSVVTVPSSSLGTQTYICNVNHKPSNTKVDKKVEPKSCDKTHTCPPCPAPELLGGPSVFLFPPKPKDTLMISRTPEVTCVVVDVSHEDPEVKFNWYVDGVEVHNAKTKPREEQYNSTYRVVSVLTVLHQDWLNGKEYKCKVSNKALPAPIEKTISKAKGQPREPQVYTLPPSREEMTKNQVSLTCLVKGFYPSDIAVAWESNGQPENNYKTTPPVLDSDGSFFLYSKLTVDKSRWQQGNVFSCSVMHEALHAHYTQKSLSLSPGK
light: B1 light
notes: Human IgG1; also called E380A/N434A variant

Kd (CD16a (V) [1]): 39.4 nM
Kd (CD16b (NA2)): 470 nM
Kd (CD16a (F)): 170 nM
Kd (human TNFα [2]): 0.00773 nM
koff (human TNFα [2]): 5.84e-05 s⁻¹
kon (human TNFα [2]): 7.55e+06 M⁻¹ s⁻¹
Kd [3]: 103 nM
EC50 (read off the curve) (human C1q): ~0.7 µg/mL
Kd (CD32b): 1370 nM
Kd (CD32a (H)): 1170 nM
Kd (CD64): 3.17 nM
Kd (CD32a (R)): 1560 nM
Fold change from wt [4]: 9.7 fold
fold increase in affinity (CD16a (V) [7]): 4.7 fold
Fold change from IFX [5]: 4.1 fold
IC50 (read off the curve) (human TNFα [6]): ~0.008 µg/mL
B3: Ab-AA-2FF (antibody, human IgG1, kappa)
heavy: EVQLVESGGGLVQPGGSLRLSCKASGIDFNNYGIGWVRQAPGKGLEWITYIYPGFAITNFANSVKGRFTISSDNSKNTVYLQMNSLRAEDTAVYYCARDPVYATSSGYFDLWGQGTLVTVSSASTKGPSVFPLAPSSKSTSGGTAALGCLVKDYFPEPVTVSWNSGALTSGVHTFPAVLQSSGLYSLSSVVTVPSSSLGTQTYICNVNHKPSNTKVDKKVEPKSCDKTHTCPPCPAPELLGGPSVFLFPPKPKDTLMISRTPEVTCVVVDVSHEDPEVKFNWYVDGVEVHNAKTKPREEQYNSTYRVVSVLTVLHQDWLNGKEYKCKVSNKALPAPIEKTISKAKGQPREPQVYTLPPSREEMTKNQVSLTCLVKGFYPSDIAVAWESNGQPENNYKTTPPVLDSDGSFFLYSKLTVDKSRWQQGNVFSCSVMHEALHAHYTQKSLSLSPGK
light: B1 light
modifications: N-glycans at N297 (EU) with greatly reduced fucose (<10% fucosylated); produced in the presence of 2-deoxy-2-fluoro-fucose (2FF)
notes: human IgG1; also called non-fucosylated variant of Ab-AA

EC50 (read off the curve) (human C1q): ~0.6 µg/mL
B4: infliximab (antibody)
chain 1: not shown
chain 2: DILLTQSPAILSVSPGERVSFSCRASQFVGSSIHWYQQRTNGSPRLLIKYASESMSGIPSRFSGSGSGTDFTLSINTVESEDIADYYCQQSHSWPFTFGSGTNLEVKRTVAAPSVFIFPPSDEQLKSGTASVVCLLNNFYPREAKVQWKVDNALQSGNSQESVTEQDSKDSTYSLSSTLTLSKADYEKHKVYACEVTHQGLSSPVTKSFNRGEC
